We go through 12 molecules from patent US20090170762A1, “Treatment of Diabetes Related Obesity” (UUTech Limited, priority 2005, published 2009).

Square brackets hold non-standard residues; d marks the D form. Ends that are not written are not given here. * marks the point of attachment. Palmitoyl = CCCCCCCCCCCCCCCC(=O)*; Hyp = O=C(O)[C@@H]1C[C@@H](O)CN1 Where only a bound is given, the exact number is not on record here.

Series [1] addresses T1, human GIP receptor (GIP-R) (human, UniProt P48546 22-466).
T1 sequence (looked up): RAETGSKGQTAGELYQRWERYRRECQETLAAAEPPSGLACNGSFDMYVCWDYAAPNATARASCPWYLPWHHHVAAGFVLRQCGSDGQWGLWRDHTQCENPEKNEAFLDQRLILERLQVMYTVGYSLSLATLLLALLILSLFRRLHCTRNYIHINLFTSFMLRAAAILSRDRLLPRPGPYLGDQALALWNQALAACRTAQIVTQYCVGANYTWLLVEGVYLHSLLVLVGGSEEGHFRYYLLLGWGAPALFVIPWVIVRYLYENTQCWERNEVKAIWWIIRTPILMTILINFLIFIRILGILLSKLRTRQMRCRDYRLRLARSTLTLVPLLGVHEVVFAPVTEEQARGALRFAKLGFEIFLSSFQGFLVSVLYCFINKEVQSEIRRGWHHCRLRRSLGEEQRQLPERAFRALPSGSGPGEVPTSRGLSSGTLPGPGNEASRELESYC
Description: cell-based or functional assay.

For series [2], the target named is T2, human GIP-R (Homo sapiens, UniProt P48546).
T2 construct: expressed in transfected cells; host or cells: Chinese Hamster Lung (CHL) fibroblast cells, stably transfected
T2 sequence (P48546 22-466): T1 sequence (looked up)
Kind of series: Cyclic AMP production in GIP-R transfected CHL cells. It is filed as cell-based. On the procedure:
Tissue Culture. […] (v/v) fetal bovine serum, 1% (v/v) antibiotics (100 U/ml penicillin, 0.1 mg/ml streptomycin) (all from Gibco, Paisley, Strathclyde, Scotland). BRIN-BD11 cells were cultured in RPMI-1640 tissue culture medium containing 10% (v/v) fetal bovine serum, 1% (v/v) antibiotics (100 U/ml penicillin, 0.1 mg/ml streptomycin) and 11.1 mm glucose. The origin and secretory characteristics of these cells have been described in detail previously (McClenaghan, N. H. et al., 1996, Diabetes 45:1132-1140). The cells were maintained in sterile tissue culture flasks (Corning Glass Works, Sunderland, UK) at 37° C. in an atmosphere of 5% CO2 and 95% air using a LEEC incubator (Laboratory Technical Engineering, Nottingham, UK).
Methods. […] The culture medium was removed and cells subsequently washed twice with 2 ml ice-cold HBS buffer (130 mm NaCl, 20 mm HEPES, 0.9 mm NaHPO4, 0.8 mm MgSO4, 5.4 mm KCl, 1.8 mm CaCl2, 5.6 mm glucose and 25 μm phenol red) (pH 7.4). […] The medium was subsequently removed and the cells lysed with […] of lysing solution (5% TCA, 3% SDS, 92% H2O, also containing 0.1 mm unlabelled cAMP and 0.1 mm unlabelled ATP) (Sigma, Poole, Dorset, UK). The plates were then left on a shaker at room temperature for 30 minutes and tritiated cAMP formation determined by column chromatography using Dowex and alumina ion exchange columns (BioRad Life Science Research, Alpha Analytical, Larne, UK) as previously described (Gault, V. A. et al 2002, Biochem. J. 367:913-920).

Series [3] concerns the target DPP-IV (Homo sapiens, UniProt P27487). Description: Degradation of GIP and Glu3-substituted GIP analogs by DPP-IV (HPLC). It is filed as in vitro ADME. As to conditions: for Intact Peptide Remaining (%) 0 hrs. / remaining at 2 h, 2 μm / remaining at 4 h, 2 μm / remaining at 8 h, 2 μm: incubation with DPP-IV (5 mU), 37°C; for Intact Peptide Remaining (%) 0 hrs.: pH 7.8, 0 hrs; for half-life: incubation with DPP-IV, unit not given (time points in hrs), read-out: Estimated Half-Life; for remaining at 2 h, 2 μm / remaining at 4 h, 2 μm / remaining at 8 h, 2 μm: isolated DPP-IV enzyme (5 mU); for remaining at 2 h, 2 μm: pH 7.8, 2 hrs, read-out: Intact Peptide Remaining (%) 2 hrs.; for remaining at 4 h, 2 μm: pH 7.8, 4 hrs, read-out: Intact Peptide Remaining (%) 4 hrs.; for remaining at 8 h, 2 μm: pH 7.8, 8 hrs, read-out: Intact Peptide Remaining (%) 8 hrs.

DPP-IV, sequence (P27487 whole entry, species assumed): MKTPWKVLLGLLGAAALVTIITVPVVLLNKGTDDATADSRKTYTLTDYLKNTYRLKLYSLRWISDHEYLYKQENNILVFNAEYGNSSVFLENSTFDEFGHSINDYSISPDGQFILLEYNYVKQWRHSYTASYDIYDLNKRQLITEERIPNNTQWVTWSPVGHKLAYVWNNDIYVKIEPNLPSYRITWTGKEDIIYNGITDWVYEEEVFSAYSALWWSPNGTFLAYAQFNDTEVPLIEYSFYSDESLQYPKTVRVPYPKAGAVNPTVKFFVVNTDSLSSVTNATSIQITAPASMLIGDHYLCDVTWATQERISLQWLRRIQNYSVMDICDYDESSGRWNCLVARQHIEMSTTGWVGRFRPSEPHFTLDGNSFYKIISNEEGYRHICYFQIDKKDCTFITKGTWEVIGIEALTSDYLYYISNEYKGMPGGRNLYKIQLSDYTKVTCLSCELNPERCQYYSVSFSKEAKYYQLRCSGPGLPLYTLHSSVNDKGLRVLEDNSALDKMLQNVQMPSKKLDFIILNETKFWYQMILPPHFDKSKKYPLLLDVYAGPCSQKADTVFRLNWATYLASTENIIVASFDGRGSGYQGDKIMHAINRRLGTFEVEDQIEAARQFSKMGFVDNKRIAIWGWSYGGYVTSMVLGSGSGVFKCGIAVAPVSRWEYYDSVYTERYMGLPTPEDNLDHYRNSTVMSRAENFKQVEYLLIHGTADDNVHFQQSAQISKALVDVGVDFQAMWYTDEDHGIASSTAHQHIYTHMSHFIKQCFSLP

For “native GIP (glucose-dependent insulinotropic polypeptide; gastric inhibitory polypeptide), GIP(1-42) (from UniProt P09681 52-93) (ligand)”, in series [1], the Cyclic AMP EC50 (nm) is 0.5 nm and the cAMP response in presence of 10^-7 M GIP (% GIP max) was 100 % GIP max.

The EC50 is the concentration giving half of the maximal effect. The low end stands for a more potent agent, the high end for a less potent agent. As a reminder, the half-life is the time needed for the level to fall by half in the phase considered. For orientation: share remaining means what is left of the initial amount, in per cent. In series [2], “YA[Hyp]GTFISDYSIAMDKIHQQDFVNWLLAQKGKKNDWKHNITQ [(Hyp^3)GIP]” registered an EC50 of 1.34 µM. Further, the remaining activity at 0.1 µM in series [2] (CHL, read-out: cAMP response in presence of 10^-7 M GIP (% GIP max)) was determined as 56 ± 4%. Further, in series [3], the “Intact Peptide Remaining (%) 0 hrs.” value worked out at 100%; the half-life was > 8 h; the amount remaining at 2 h, 2 μm was determined as 100%; the amount remaining at 4 h, 2 μm worked out at 100%. For the same molecule, in series [3], the amount remaining at 8 h, 2 μm was 100%. For the same molecule, the “resistance to DPP-IV degradation” value in series [3] (words, up to 8 hours incubation) is on record as “completely resistant”.

Regarding “YA[Hyp]GTFISDYSIAMDK(Palmitoyl)IHQQDFVNWLLAQKGKKNDWKHNITQ [(Hyp^3)LysPAL^16GIP]”, in series [3], the “Intact Peptide Remaining (%) 0 hrs.” value turned out to be 100%; the half-life was > 8 h; the fraction remaining at 2 h, 2 μm came out at 100%; the amount remaining at 4 h, 2 μm came out at 100%. Also, the share remaining at 8 h, 2 μm in series [3] was 100%.

As for YA[Hyp]GTFISDYSIAMDKIHQQDFVNWLLAQKGKKNDWKHNITQ [(Hyp^3)GIP], in series [1], the “Cyclic AMP EC50 (nm)” value was determined as 1340 nm and the “cAMP response in presence of 10^-7 M GIP (% GIP max)” value (“cAMP response … (% GIP max)” below) turned out to be 56 % GIP max.

For the molecule YAPGTFISDYSIAMDK(Palmitoyl)IHQQDFVNWLLAQKGKKNDWKHNITQ [(Pro^3)LysPAL^16GIP], in series [1], the “Cyclic AMP EC50 (nm)” value came to 870 nm and the “cAMP response … (% GIP max)” value was 63 % GIP max.

Take YA[Hyp]GTFISDYSIAMDK(Palmitoyl)IHQQDFVNWLLAQKGKKNDWKHNITQ [(Hyp^3)LysPAL^16GIP]: in series [1], the “Cyclic AMP EC50 (nm)” value came out at 138 nm and the “cAMP response … (% GIP max)” value came out at 48 % GIP max.

For the molecule YAAGTFISDYSIAMDKIHQQDFVNWLLAQKGKKNDWKHNITQ [(Ala^3)GIP], in series [1], the “Cyclic AMP EC50 (nm)” value is 2.3 nm and the “cAMP response … (% GIP max)” value turned out to be 88 % GIP max.

Turning to YAKGTFISDYSIAMDKIHQQDFVNWLLAQKGKKNDWKHNITQ [(Lys^3)GIP], in series [1], the “Cyclic AMP EC50 (nm)” value was 2.6 nm and the “cAMP response … (% GIP max)” value came to 63.5 % GIP max.

YAWGTFISDYSIAMDKIHQQDFVNWLLAQKGKKNDWKHNITQ [(Trp^3)GIP]: in series [1], the “Cyclic AMP EC50 (nm)” value turned out to be 3 nm and the “cAMP response … (% GIP max)” value worked out at 78 % GIP max.

As for YAFGTFISDYSIAMDKIHQQDFVNWLLAQKGKKNDWKHNITQ [(Phe^3)GIP], in series [1], the “Cyclic AMP EC50 (nm)” value stood at 1 nm and the “cAMP response … (% GIP max)” value is 62 % GIP max.

For the molecule YAPGTFISDYSIAMDKIHQQDFVNWLLAQKGKKNDWKHNITQ [(Pro^3)GIP], in series [1], the “Cyclic AMP EC50 (nm)” value was found to be 207 nm and the “cAMP response … (% GIP max)” value turned out to be 66 % GIP max.

As for YAYGTFISDYSIAMDKIHQQDFVNWLLAQKGKKNDWKHNITQ [(Tyr^3)GIP], in series [1], the “Cyclic AMP EC50 (nm)” value worked out at 1.5 nm and the “cAMP response … (% GIP max)” value amounted to 76 % GIP max.
